These are literature values, as cited in patent publication US9421247B2, “Biodegradable nanoparticles as novel hemoglobin-based oxygen carriers and methods of using the same” (Vindico NanoBio Technology Inc., priority 2010, dated 2016).

With “PolyHeme™: commercial acellular HBOC (Northfield Lab, Evanston, Ill., USA)”, the “adverse physiological effects on infusion/transfusion into animals” value is listed as “induce vasoconstriction”.
Consider “free hemoglobin: cell-free hemoglobin infused into animals”, for which the “adverse physiological effects on infusion/transfusion into animals” value was “significant vasoconstriction and kidney damage”.
